# Assay: soluble on expression in E. coli; label from the status in PepcDB or PDB records
row,Sequence,soluble on expression in E. coli
1,MAHHHHHHMLRCAPSKLFRATPLLRVWAAEEDDASAPRTTFRNVRPGRLLRLWRQMRHRAWMLYAWDEEWVSPMQEGYLHQQRLEQVCFAPLSAYGVVPGSYCDPLLYNTKSTSPFRWHVANVQGDIVGHWYMDADELFRIEDWQPREPDDPLEMFPRPPPMLLRWDESVDEHGNRAFRYRYHYDMMGPTGKWEAYPRCPFSHLYHGGPDQHGRAEGYGFQQGHLLRCDEAEEEVLRRIMEGEDREWEMVKRTEAVQEPWSYPGKIRPRDFEGAVERAKARFRERVRHGKETDPSEDPEYDLVQASEYVEPRDGRRAEWRHLWASGRKPGESLPFHVAFNDGLCFEGNEGGPPAHPAAHYEAAHYEAPYGRYEDADAAAARAAEAAHNAACEQSLSEAMARHRRLFGDTSGAPSGPKAPLPTGCRPMRCAPGPPLPSGRSRSSGARAVGSGPVCGAGARDGESEGEGRGGEAPLGYGARACSWRRREGWV,not soluble
2,MSLVLMIVSGRSGSGKSVALRALEDMGFYCVDNLPVVLLPDLARSLADRNISAAVSIDVRNMPESPEIFEQAMQNLPECFSPQLLFLDADRNTLIRRYSDTRRLHPLSSKNLSLESAIDEESDLLEPLRSRADLIVDTSEMSVHELAEMLRTRLLGKRERELTMVFESFGFKHGIPIDADYVFDVRFLPNPHWDPKLRPMTGLDKPVAAFLDRHTEVHNFIYQTRSYLELWLPMLETNNRSYLTVAIGCTGGKHRSVYIAEQLADYFRSRGKNVQSRHRTLEKRKSEGGSHHHHHH,soluble
3,MNRDIGKNAERELVSILRGEGFNAVRIPTSNSSPNPLPDIFATKGNTLLSIECKSTWENKVKVKEHQVRKLLDFLSMFTMKGVPLIAIKFKQVHEWRVLVPEKAEDIIVTIDNSIPIEDLFKILEKRIEEKILTP,soluble
4,MGSDKIHHHHHHMNYKPEIAIIESNTLTCLGLKSILEEIIPMATIRTFHSFSELMDDTPDMYAHYFISAQIYVEHNAFFLPRKRKTIVLASDSPQFQLSGVPVLNIYEPEEKLVKSLLKLHQHAHHNGYPVKDMPPIAMPEVHQEILSAREIEVLVLITKGLINKEIADKLNISLTTVITHRKNITEKLGIKSVSGLTIYAVMNGYIEADRI,not soluble
5,MSLNRSSIAHFTASVFVLNESHDKILGIYHKIYQSWGWVGGHADGNADLLAVAVKEVQEETGLRSFKKLSEMPISIEALPVFGHHHRKYGYVSAHIHLNVTFLFEAKESDSLQKNTDETGGLAWIPLEKFSEKSSEKEMRVIYDKIITRIINKEGHHHHHH,not soluble
6,MSAQKPGLHPRNRHQHRYDLAALCQTTPELTSFLIRTPAGEQSVDFANPQAVKALNKALLAHFYAVTHWDIPPGFLCPPVPGRADYIHHLADLLGETTGSIPAQATILDVGVGANCIYPLIGVHEYGWRFTGSEVSDAAMSSAQAIIQANTGLSRAIRLRRQKDPAAIFTGIIHKNEFYDATLCNPPFHDSAAAARAGSERKRRNLGQNKDDALNFGGQQQELWCEGGEVAFIKKMIAESQSFRRQVLWFTTLVSRGENLPPLYRALTEAGAVKVVKKEMAQGQKQSRFIAWTFMDDDQRRRFITRKR,not soluble
7,MEDELPIIKGKKVILFAPTFRGSGHGTAHYPFFKIDFERLARYCEKNNAVVLFKMHPFVKNRLNIADKHKQYFVDVSDFREVNDILFITDLLISDYSSLIYEYAVFKKPMIFYAFDLEDYITTRDFYEPYESFVPGKIVQSFDALMDALDNEDYEGEKVIPFLDKHFKYQDGRSSERLVRNLFGS,soluble
8,MSLVKNEEKLLEVINKYELNSIFSQEIMPFLELHMFKKNEHICFMNEELNYLYFFVHGKAKVYKTLPNGKSLLLEFYEPVQLIGDLELISKIKANCNVKALKSSLCIAIPIQAVNSIALKDLNFLMYITKNLSNKLAKCSVTSSITITYPLETKLASYLLAMNSNNIIMIDNYSNLADLLGTSYRHLNRVLNKLVEKGIILKDKNEIKILNKEELENICVDLNEGHHHHHH,soluble
9,MFQAINASGSGLTTARKWMQVTSNNIVNANTPAAPGADLYERRSVVLESNNSFASMLDGAPTNGVKIKSIEADKTENLVYDPTHPHANEEGYVRYPNIDVTAEMTNVMVAQKMYEANTSVLNANKKMLDKDLEIGRG,not soluble
10,SANTSFLLRKKIFAKLMRITTPSHDHYGSSTLLVRLTNDVYLMEVIAFDFL,not soluble
11,MSLKFIEEVVVEEFLPTFRSLLAADLRERGLTQHEVAELLGVSQSAVSKYAHGDVTTDDEIAADDRVQELVERTGSGLATGNVSQVQALVEAEVLVRELSTSSDILAERHEAANPALADYDGDFTVHDADSEVRVREHVLSSVRRGVRMLERTSGFATQIPAVGANLVECTPEADTVEDVAGVPGRVLDVMGRTEIPAEPEFGVSAYVATVLLDARAAGVDAHAALNIAYSADTVAALADAGYAVVEFEPEGESTTDDHHIRDAVRDADAVDVLYQTGGYGVEPIVYVLAENAPDAVRMARGLEGHHHHHH,soluble
12,METQKQTRRRGEKLENTILTAAWDQLNKVGYKDLTITEIASLAGTNKTTIYRRWPNKSLLVVSAFSKFVPRPKMHIPNSGNLRDDLVKLFEQLVNQLEFLTSGKFEGLLLDRLRDTSIDKVFGRVDENNALQKFIVIILQRAEKRGELKINQLSQRVLELPFLLLLNEVISTRGIVPKESLTEIVDKILLPVFLRSN,not soluble
13,MSPQKRVKNVQAQNRTSQGSSSFQTTLSAWKVKQDPSNSKNISKHGQNNPVGDYEHADDQAEEDALQMAVGYFEKGPIKASQNKDKTLEKHLKTVENVAWKNGLASEEIDILLNIALSGKFGNAVNTRILKCMIPATVISEDSVVKAVSWLCVGKCSGSTKVLFYRWLVAMFDFIDRKEQINLLYGFFFASLQDDALCPYVCHLLYLLTKKENVKPFRVRKLLDLQAKMGMQPHLQALLSLYKFFAPALISVSLPVRKKIYLQNSENLWKTALLAVKQRNRGPSPEPLKLMLGPANVRPLKRKWNSLSVIPVLNSSSYTKECGKKEMSLSDCLNRSGSFPLEQLQSFPQLLQNIHCLELPSQMGSVLNNSLLLHYINCVRDEPVLLRFHYWLSQTLQEECIWYKVNNYEHGKEFTNFLDTIIRAECFLQEGYYSCEAFLYKSLPLWDGLSCRSQFLQLVSWIPFSSFSEVKPLLFDHLAQLFFTSTIYFKCSVLQSLKELLQNWLLWLSMDIHMKPVTNSPLETTLGGSMNCVSKLIHYVGWLSTTAMRLESNNTFLLHFILDFYEKVCDIYINYDLPLVVLFPPGIFYSALLSLDTSILNQLCFIMHRYRKNLTAAKKNELVQKTKSEFNFSSKTYQEFNYYLTSMVGCLWTSKPFAKGIYIDPEILEKTGVAEYKNSLNVVHHPSFLSYAVSFLLQESPEERTVNVSSIRGKKWSWYLDYLFSQGLQGLKLFIRSSVHHSSIPRAEGINCNNQY,soluble
14,MVDLNKYKRFVETHGMKIPVLSLEYEYQAYLKLGRVEKAETLRKWLNERKG,not soluble
15,MGSDKIHHHHHHMKVALRKTIGERLLELAKQDEKIVVVTSDARGSAAIADFFKVFPERSIEVGIAEQTAAGVAAGLALCGKKAWVFGPACFYSARNLEQIKNDIAYSDANVKIVAVSGGVSYGPLGSTHHALHDVAVMRAIPNLKVLLPSDAVLAAAILEQLLKDEKPVYMRTGRNPVPVIYSRDEKFEVGRAITLKEGNDITIIATGEVVWRALEAAKILEKEGISARVIDMFTVKPLDEEAVFRAARETGRIVTVEEHSIFGGLGGAVAEFLSQNLPTPMKILGIPDEYPVTGTQDEVLKHYGLAPEGIAKTVLEWFKEGN,not soluble
16,MIFVLDVGNTNAVLGVFEEGELRQHWRMETDRHKTEDEYGMLVKQLLEHEGLSFEDVKGIIVSSVVPPIMFALERMCEKYFKIKPLVVGPGIKTGLNIKYENPREVGADRIVNAVAGIHLYGSPLIIVDFGTATTYCYINEEKHYMGGVITPGIMISAEALYSRAAKLPRIEITKPSSVVGKNTVSAMQSGILYGYVGQVEGIVKRMKEEAKQEPKVIATGGLAKLISEESNVIDVVDPFLTLKGLYMLYERNANLQHEKGEHHHHHH,soluble
17,EKPANRQQTLEILAQHIEMDGVRQFLSKSLFKNEDHMAWRFNVDSLLSNYAEIIGWQDIAPTEIPTLFIKGGDSDYLMPEHQPSVQRQFKQAKAHIIANTGHWLHAEKPAEVMRVIRKYISS,not soluble
18,GYSQYNIHGNQFYNLGIDYAYRWHRFSFQGETAMGKQGSATLNRFQYSPVEGTQLMIVQRYYSYNYWAMFAHSFGEGSAVQNEQGYYLGVETSPFRYWHILASFDLFSFPWKKYRISKPSRGMDGLLQATFTPHNNLTMYLKYRYKQKERDLTGSKENLTLPIFHHQLRYRLNYFYGDVFSCRTTLDYNHFHSQDRAASKGYQVTQMMSSQLPWTRLFADVQGSYFSTDDYDSRVYVSEKGLLYTFYTPSFQGRGFRCAVRLRYEPNEHWMFITKFGETVYLDRNEIGSGNDLILGNKKADVQMQLRIKF,not soluble
19,MSPLPIIEVMPKLLSGITNSPQLILKAAPGAGKSTYFPLQLLQAGGFHGKIIMLEPRRLAARNIARYLAQQLGEEVGQRVGYRVRGENRVSRATQLEIVTEGIMTRMLQNDPELDGVDVLIFDEFHERSIHADTALALALEVQSALREDLKIVVMSATLDQQALQNLLPQASYVESQGRGFPIEIRYQPLRSDEPLVTAMQRQIRHLLQHETGSLLAFLPGAASINQLTEQLSDLASEVEICPLYGQMEFAAQQRAIAPTAAGRRKVVLATNIAETSLTIEGIRIVLDSGLERSARFDLKTGITRLEQVRIAQSSAEQRAGRAGRLEPGICVRLYSEAQLKQQPWVPEPEMLHTDLAPLALELAQWGAQPSDLAWLNLPPSSAFAQAQQLLQRLGLLDARTQITAAGKEAHLLGVEPRIAAMLLSADRLGESALQSALALTVLLEEPERQVIDVQHSLHRWQQGRHPKQKLLIQRAQSLAHKLDTAFSLSSVDSAWLPLVACLAFPDRIAQQRGQQTGQFLLANGHGAWLAVEDRLSAADYLVALDLMRGQTQASQIFSALELDIHALERVLPALISRVEQVDWDEKAGRLSAEAQWRIDQLVLRREKLPEPDKQKMTQALLSYVRRKGLTVLQWSEDASEWLARARCAAEWLPEEAWPALDDETLLARLELWLEPYLAGVTSVKGLQSVSVLQALKHYLGWELSQQLDEWLPTHHLLPTGNHKKIRYQLGMEPTLSVRMQEVFGEQSSPRVAKGTRAVVMELLSPAQRPLQVTRDLASFWAGAYKEVQKEMKGRYPKHVWPDDPANHVATSKTKRQLNA,soluble
20,MGSDKIHHHHHHMAELIFSRETDCRYCYKCLRNCPVKAISFKSGKSTVLEEECVFCGSCLDICPQNARSYRKDVERFLSLSEPFLVSIAPSFFAYFENPLKVIGVLKEMGAVVVQETAVGAEIVSRRYEEVFEKHSGPFITTACPVVVNLAEKHFPNVLKYFAPVDSPLMTHAKFLKTRYGDFPIVFVGPCIAKKSESDLVDVALTFEELEEILEEREGKEALPDGPYPDRARFYPTTDGIGYTVSVPWEKKLVVEGVENLMRVFSRIDEYKSVFIEASACYGSCLNGPVMKKKSNGKERLLEWQKKLPKEPK,not soluble
21,MKLKLVDVETNPHEEEVGTCEFCMSVEMVNEPVFVFKKDIGELVRVKAFIWSWGFYDEENIENIVDFAAYVNEQEFDEEQELDYSWLTNLIYEYEYGKDC,not soluble
22,VTYNLEKRPTTIVLINDTPLNVLLDTGADTSVLTTAHYNRLKYRGRKYQGTGIGGVGGNVETFSTPVTIKKKGRHIKTRMLVADIPVTILGRDILQDLGAKLVL,soluble

# Source: the DeepSol protein solubility set
